From the supplement of paper PMC9170038

Test system: K4 kissing-loop RNA reporter
Experiment: apparent KD of K4 kissing-loop reporter; higher = weaker reporter binding
Conditions: Eterna round: R107
Procedure: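 RNA-MaP round R107: designed RNA switches with theophylline, tryptophan, arginine or FMN aptamers are transcribed on-chip within common flanks. They are titrated with a labelled K4 kissing-loop RNA reporter in RNA-MaP buffer (100 mM Tris pH 7.5, 80 mM KCl, 4 mM MgCl2), without ligand or with the indicated ligand. Median apparent KD per design.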

[1] = input ligand: theophylline 20 uM
[2] = input ligand: tryptophan 2.4 mM
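Note: bound reporter read as fluorescence of individual clusters on recovered sequencing chips by microscopy, with normalized cluster intensities fitted with a binding model.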

Row | Sequence | apparent KD of K4 kissing-loop reporter (input ligand: FMN 200 uM) | apparent KD of K4 kissing-loop reporter (input ligand: arginine 13.2 mM) | apparent KD of K4 kissing-loop reporter (input ligand: none) | apparent KD of K4 kissing-loop reporter [1] | apparent KD of K4 kissing-loop reporter [2]
1 | GUAUCGCUAGGAGGAUAUUCCAUUUUACAUAGAAAUGGCUAUGCGAAGUGAUGUUUCGAUUUACGGGAAGAAGGCCUAGUGAUAC [FMN B 22] | 0.16 µM | 0.148 µM | 0.148 µM | 0.177 µM | 0.155 µM
2 | UUUAACGAGUGAUGUUCGUAAAGUAAUAGUUAGGAUAUCGUUUUUUCGAGAAGGAACUUCGAAGUGAUACGAAAGUAUCGCUUCG [FMN A 8] | 0.136 µM | 0.192 µM | 0.192 µM | 0.205 µM | 0.152 µM
3 | UAACUCUUGCAGUGAUGUUGCAAGUAUGCUCAGGAUAUCAGGAAACUGAGAAGGGAGUUUCCUGAGCUUCUGCAAGAGCUCAGAA [KL-SSFMN-A6] | 0.618 µM | 0.408 µM | 0.547 µM | 0.375 µM | 0.382 µM
4 | UGGUUUAGAAGUGAUGUUUCGAUAAGUGAUACCAGACAAAAGAAAGUCCCUUGGCAGCACAAUGAUGCCAAGGAAACGGCAUGAU [Same State Theophylline A GF 1] | 0.118 µM | 0.146 µM | 0.115 µM | 0.127 µM | 0.0989 µM
5 | CACCAUGAAUUCUCUAGGAGUGAUGUUUUUCGAGGACCGGUACGGCCGCCACUCGGACGAGGACCGUGGGAGCGGCGAAAAGACU [ghgmullin] | 0.206 µM | 0.225 µM | 0.329 µM | 0.152 µM | 0.309 µM
6 | AGCGCUGCCUGAGGAUAUAGAAACGAGUGAUGUUCGUGGAUUGAUACCAGUGAUGUUGGCCUAUUUCUAGAAGGCAGGCGAUCGU [Exclusion FMN B GF2] | 0.172 µM | 0.0971 µM | 0.136 µM | 0.0882 µM | 0.114 µM
7 | AGUGCACUGUCAGGAUAUAUACAGUGAUGUUGUGUAUGUCGGCAAGUCAAAGACUUGCCAUUCUGUGUAGAAGGGACUGUGUACA [#04 K4 FMN B Exclusion] | 0.544 µM | 0.203 µM | 0.222 µM | 0.202 µM | 0.223 µM
8 | AAAUAGAUCAGUCACCCAGUGAUGUUGGAAGGAGCGUGCGAAAGCACAGGUAGGUCGCCAGAAUAAAAGUGGCUGAUCAAAAUAA | 0.512 µM | 0.358 µM | 0.519 µM | 0.513 µM | 0.366 µM
9 | AUAUCUGAUAGCAGUGAUGUUGCUUCAGAUACCAGACGAGAUCAUGUCCCUUGGCAGCUGACACGGCACGUGCUAGGUUAGAUGA [Theo A Ex t2] | 0.101 µM | 0.0926 µM | 0.101 µM | 0.103 µM | 0.101 µM
10 | CGCAGGAUGGAAGGAUAUGGGAGUUGACGUCGCCGAGCUAACCUUCUGCACGGAGUGAUGUUUAGACCAGAAGGUCCUCGGAGCA [theeternabot_exclusion_KL_FMN_B_17] | 1.21 µM | 0.997 µM | 1.61 µM | 1.15 µM | 1.18 µM
11 | UGACUGGAUGGAAGGAGCGCUAAACUCCUAGUGAUGUUAGGGACAUGAGGCAUAGCCUUGAAGCAGGUAGGUCGCCAUCUAGUCU [FiskerMod 29 - Jieux - Same State - Arginine B] | 0.193 µM | 0.132 µM | 0.184 µM | 0.189 µM | 0.144 µM
12 | CGGAUCGCAUCAGGAUAUCUCUCAUCAGUGAUGUUGGUGAAGCGUACGCGAAAGCGUACGCAGAUGAGAGAAGGGAUGCGAUCCG | 0.467 µM | 0.763 µM | 1.67 µM | 0.766 µM | 0.945 µM
13 | AGAGUCAGACAAAAGUCUGGCUCAGCCGAAGGAGCGUCCGAAAGGACAGGUAGGUCGCGGUUGCAUGAGUGAUGUUGAUGUUUUU [KL-SSArg-A23] | 0.546 µM | 0.372 µM | 0.425 µM | 0.559 µM | 0.5 µM
14 | GGCGCAGUGAUGUUGCGGGCCGAGAGUGAUACCAGCCGUAUUUGUGGCCCUUGGCAGCGCAGAACCAGUGAUGUUGGUUACUUGG [Same State Theophylline A GF 22] | 0.223 µM | 0.513 µM | 0.423 µM | 0.467 µM | 0.421 µM
15 | CGAGCUUCCUGGGAUACCAGUCGGAGUCUCAGAGCUCGGAGUGAUGUUCUGGGAUGUUUCGGCCCUUGGCAGCUCUGGGACUCCU [#2 Exclusion - Theophylline B Attempt #20 (HarryS)] | 1 µM | 0.576 µM | 0.767 µM | 0.883 µM | 0.797 µM
16 | UCGAGUGAUGUUCGAUUUCAGUGAAGAGAUACCAGCCGCAGUGUAGGCCCUUGGCAGCUCGGCUAUUAUGACAUAUGCAGUUUAG [theeternabot_sameState_KL_Theo_A_29] | 0.125 µM | 0.121 µM | 0.119 µM | 0.122 µM | 0.08 µM
17 | GGAUAGGACAGAGGAUAUGGUAGUGAUGUUACCAAACUGGUUAUCAAUGUUAGAAAAUUGACAAAACCAGAAGGCUGUCCUAUCG [KL-XFMN-B15] | 0.129 µM | 0.0656 µM | 0.0678 µM | 0.0592 µM | 0.0666 µM
18 | AUAUUACUAUACGAUACCAGCCCUAACACUAGUGACGCGGUAAUAGUGAUGUUGUAACCCGGCCCUUGGCAGCGUAAUCAUGGAA [theeternabot_sameState_KL_Theo_B_7] | 0.529 µM | 0.395 µM | 0.519 µM | 0.524 µM | 0.475 µM
